Data reported in patent US20230331809A1 (Zymeworks, published 2023).

How the values were obtained:
[1] = target: T1, PD-L1 (Programmed death-ligand 1) on cells (UniProt Q9NZQ7 19-290); assay: cell-based or functional assay
[2] = target: T2, CD3 (Cluster of Differentiation 3) on Jurkat cells and on pan T cells (human, UniProt P07766 23-207); assay: flow cytometry on pan T cells (CD3), MFI
T2 construct: whole, on cells

[3] = target: T2, CD3 (Cluster of Differentiation 3) on …; assay: flow cytometry on human pan T cells, separate experiment (FIG. 32)
[4] = target: T2, CD3 (Cluster of Differentiation 3) on …; assay: cell ELISA on Jurkat cells (CD3), OD450
[5] = target: T2, CD3 (Cluster of Differentiation 3) on …; assay: cell ELISA on Jurkat cells (CD3), OD450; remark: listed apart in the source
[6] = target: T2, CD3 (Cluster of Differentiation 3) on …; assay: flow cytometry on pan T cells (CD3), MFI; remark: listed apart in the source
[7] = target: T2, CD3 (Cluster of Differentiation 3) on …; assay: cell ELISA on Jurkat cells (CD3), OD450; reference sample
[8] = target: T3, PD-1 (Programmed Cell Death Protein 1) on cells (UniProt Q15116 25-288); assay: flow cytometry on PD-1 transfected CHO-S cells, MFI; * poor fit
T3 construct: whole, on cells

[9] = target: T1, PD-L1 (Programmed death-ligand 1) on …; assay: flow cytometry on PD-L1 transfected CHO-S cells, MFI; * poor fit
[10] = target: T2, CD3 (Cluster of Differentiation 3) on …; assay: flow cytometry on pan T cells (CD3), MFI; sample treated with uPa (variant has no mask)
[11] = target: T2, CD3 (Cluster of Differentiation 3) on …; assay: flow cytometry on pan T cells (CD3), MFI; sample treated with uPa; EC50 relative to v30421 -uPa
[12] = target: T1, PD-L1 (Programmed death-ligand 1) on …; assay: flow cytometry on PD-L1 transfected CHO-S cells, MFI; * poor fit; uncleavable variant, sample treated with uPa
[13] = target: T3, PD-1 (Programmed Cell Death Protein 1) …; assay: flow cytometry on PD-1 transfected CHO-S cells, MFI; * poor fit; uncleavable variant, table and legend box disagree on the uPa treatment
[14] = target: T4, Mesothelin (MSLN) on OVCAR3 cells (UniProt Q13421 296-598); assay: flow cytometry on OVCAR3 cells (MSLN), MFI
T4 construct: whole, on cells

[15] = target: T4, Mesothelin (MSLN) on OVCAR3 cells; assay: flow cytometry on OVCAR3 cells (MSLN), MFI; EC50 relative to v16417
[16] = target: T5, CD40 (Cluster of Differentiation 40) on cells (UniProt P25942 21-277, limits assumed); assay: cell-based or functional assay
[17] = target: T5, CD40 (Cluster of Differentiation 40) on …; assay: flow cytometry on Raji cells (CD40), MFI
[18] = target: T5, CD40 (Cluster of Differentiation 40) on …; assay: flow cytometry on Raji cells (CD40), MFI; EC50 relative to v32477 -uPa
[19] = target: T5, CD40 (Cluster of Differentiation 40) on …; assay: flow cytometry on Raji cells (CD40), MFI; sample treated with uPa; EC50 relative to v32477 -uPa
[20] = target: T5, CD40 (Cluster of Differentiation 40) on …; assay: flow cytometry on Raji cells (CD40), MFI; sample treated with uPa (variant has no cleavage site)
[21] = target: T6, CDH3 (Cadherin 3) on JIMT1 cells (UniProt P22223 108-829, limits assumed); assay: flow cytometry on JIMT1 cells (CDH3), MFI
T6 construct: whole, on cells; also called P-cadherin

[22] = target: T6, CDH3 (Cadherin 3) on JIMT1 cells; assay: flow cytometry on JIMT1 cells (CDH3), MFI; reference sample
[23] = target: T6, CDH3 (Cadherin 3) on JIMT1 cells; assay: flow cytometry on JIMT1 cells (CDH3), MFI; EC50 relative to v17214

B1: Variant 32497: Half-masked CD3 × Her2 Fab × scFv Fc, PD-1 KO attached to HC (bispecific antibody, human IgG1, kappa, L234A L235A)
heavy: not shown
light: DIQMTQSPSSLSASVGDRVTMTCSASSSVSYMNWYQQKPGKAPKRWIYDSSKLASGVPARFSGSGSGTDYTLTISSLQPEDFATYYCQQWSRNPPTFGGGTKLQITRTVAAPSVFIFPPSDEQLKSGTASVVCLLNNFYPREAKVQWKVDNALQSGNSQESVTEQDSKDSTYSLSSTLTLSKADYEKHKVYACEVTHQGLSSPVTKSFNRGEC
chain: not shown
notes: also called v32497; variant with a non-functional PD-1 domain appended to the heavy chain
TDCC potency on JIMT-1 target cells, fold EC50 vs unmasked v30421 [1]: 55 fold | EC50 [2]: 13 nM | fold reduction in binding vs unmasked control [3]: 6 fold

B2: Variant 30421: CD3 × Her2 Fab × scFv Fc without mask (bispecific antibody, human IgG1, kappa, L234A L235A)
heavy: not shown
light: DIQMTQSPSSLSASVGDRVTMTCSASSSVSYMNWYQQKPGKAPKRWIYDSSKLASGVPARFSGSGSGTDYTLTISSLQPEDFATYYCQQWSRNPPTFGGGTKLQITRTVAAPSVFIFPPSDEQLKSGTASVVCLLNNFYPREAKVQWKVDNALQSGNSQESVTEQDSKDSTYSLSSTLTLSKADYEKHKVYACEVTHQGLSSPVTKSFNRGEC
chain: not shown
notes: also called v30421; unmasked variant
EC50 [4]: 1.2 nM | EC50 [5]: 1.2 nM | EC50 [6]: 2.3 nM | EC50 [2]: 2.1 nM | Fold wrt WT [7]: 1 fold | Fold wrt v31931 [8]: > 35 fold | Fold wrt v31929 [9]: > 570 fold | EC50 [10]: 5.3 nM | Fold wrt WT [11]: 2.3 fold

B3: Variant 30426: WT PD-1:HA PD-L1 masked CD3 × Her2 Fab × scFv Fc, with an uncleavable linker (bispecific antibody, human IgG1, kappa, L234A L235A)
heavy: not shown
light: AFTVTVPKDLYVVEYGSNMTIECKFPVEKQLDLAALQVFWMMEDKNIIQFVHGEEDLKVQHSSYRQRARLLKDQLSLGNAALQITDVKLQDAGVYTCLIAYKGADYKRITVKVNAEAAAKEAAAKDIQMTQSPSSLSASVGDRVTMTCSASSSVSYMNWYQQKPGKAPKRWIYDSSKLASGVPARFSGSGSGTDYTLTISSLQPEDFATYYCQQWSRNPPTFGGGTKLQITRTVAAPSVFIFPPSDEQLKSGTASVVCLLNNFYPREAKVQWKVDNALQSGNSQESVTEQDSKDSTYSLSSTLTLSKADYEKHKVYACEVTHQGLSSPVTKSFNRGEC
chain: not shown
Fold wrt v31929 [12]: > 570 fold | Fold wrt v31931 [13]: > 35 fold

B4: Variant 31729: HA PD-1:WT PD-L1 masked aMSLN Mab, PD-L1 cleavable (not treated with uPa) (antibody, human IgG1, kappa)
heavy: not shown
light: AFTVTVPKDLYVVEYGSNMTIECKFPVEKQLDLAALIVYWEMEDKNIIQFVHGEEDLKVQHSSYRQRARLLKDQLSLGNAALQITDVKLQDAGVYRCMISYGGADYKRITVKVNAEAAAKEAAAKMSGRSANADIQMTQSPSSLSASVGDRVTITCSASSSVSYMHWYQQKSGKAPKLLIYDTSKLASGVPSRFSGSGSGTDFTLTISSLQPEDFATYYCQQWSKHPLTFGQGTKLEIKRTVAAPSVFIFPPSDEQLKSGTASVVCLLNNFYPREAKVQWKVDNALQSGNSQESVTEQDSKDSTYSLSSTLTLSKADYEKHKVYACEVTHQGLSSPVTKSFNRGEC
EC50 [14]: 74 nM | Fold wrt WT (EC50) [15]: 31 fold

B5: Variant 32478: HA PD-1:WT PD-L1 masked aCD40 Mab, uncleavable (antibody, human IgG1, kappa)
heavy: not shown
light: AFTVTVPKDLYVVEYGSNMTIECKFPVEKQLDLAALIVYWEMEDKNIIQFVHGEEDLKVQHSSYRQRARLLKDQLSLGNAALQITDVKLQDAGVYRCMISYGGADYKRITVKVNAEAAAKEAAAKDIQMTQSPSSVSASVGDRVTITCRASQGIYSWLAWYQQKPGKAPNLLIYTASTLQSGVPSRFSGSGSGTDFTLTISSLQPEDFATYYCQQANIFPLTFGGGTKVEIKRTVAAPSVFIFPPSDEQLKSGTASVVCLLNNFYPREAKVQWKVDNALQSGNSQESVTEQDSKDSTYSLSSTLTLSKADYEKHKVYACEVTHQGLSSPVTKSFNRGEC
notes: also called v32478
EC50, CD40 RGA, FcgRIIB CHOK1 (sample v32478 + uPa) [16]: 4.28 µg/mL | EC50, CD40 RGA, FcgRIIB CHOK1 (sample v32478 - uPa) [16]: 5.43 µg/mL | Fold wrt WT (EC50), CD40 RGA, FcgRIIB CHOK1 (sample v32478 + uPa) [16]: 88.2 fold | Fold wrt WT (EC50), CD40 RGA, FcgRIIB CHOK1 (sample v32478 - uPa) [16]: 112 fold | EC50 [17]: 41 nM | Fold wrt WT [18]: 42 fold | Fold wrt WT [19]: 67 fold | EC50 [20]: 65 nM

B6: Variant 17214: Unmasked aCDH3 mAb (antibody, human IgG1, lambda)
heavy: not shown
light: GQSALTQPASVSGSPGQSITISCTGTSNDVGAYNYVSWYQQHPGKAPKLMISEVNKRPSGVSNRFSGSKSGNTASLTISGLQAEDEADYYCSSFTSGLPWVVFGGGTKLTVLGQPKAAPSVTLFPPSSEELQANKATLVCLISDFYPGAVTVAWKADSSPVKAGVETTTPSKQSNNKYAASSYLSLTPEQWKSHRSYSCQVTHEGSTVEKTVAPTECS
EC50 [21]: 0.36 nM | Fold wrt WT [22]: 1 fold

B7: Variant 28662: HA PD-1:WT PD-L1 masked aCDH3 Mab, uncleavable (antibody, human IgG1, lambda)
heavy: not shown
light: AFTVTVPKDLYVVEYGSNMTIECKFPVEKQLDLAALIVYWEMEDKNIIQFVHGEEDLKVQHSSYRQRARLLKDQLSLGNAALQITDVKLQDAGVYRCMISYGGADYKRITVKVNAEAAAKEAAAKQSALTQPASVSGSPGQSITISCTGTSNDVGAYNYVSWYQQHPGKAPKLMISEVNKRPSGVSNRFSGSKSGNTASLTISGLQAEDEADYYCSSFTSGLPWVVFGGGTKLTVLGQPKAAPSVTLFPPSSEELQANKATLVCLISDFYPGAVTVAWKADSSPVKAGVETTTPSKQSNNKYAASSYLSLTPEQWKSHRSYSCQVTHEGSTVEKTVAPTECS
EC50 [21]: 9.8 nM | Fold wrt WT [23]: 28 fold
